For 3 substances, stoichiometry N results are on record in publication PMC6101532.

Assay [1] addresses MBP–RsbN α3 (maltose binding protein joined by a linker to RsbN α3) (Streptomyces venezuelae). Kind of assay: SEC.
The target in assay [2] is his-tagged RsbN(1–91) (Streptomyces venezuelae). Kind of assay: SEC.

Substance “BldN (σ^BldN), full length, wild type (natural protein)” came in with a stoichiometry N in assay [1] of 1. Turning to “BldN domain 2 (σ2), non-tagged (domain or fragment)”, in assay [2], the stoichiometry N was found to be 1. “BldN domain 4 (σ4), non-tagged (domain or fragment)” showed a stoichiometry N in assay [2] of 1.

A word on the stoichiometry N: it is a count of units in the complex or per binding partner.
